The subject of this data set is Escherichia coli TOP10. Kind of data set: shrunken log2 fold change of peptide-encoding DNA abundance (4.5 h post-induction vs induction); higher = less antimicrobial activity (less host growth inhibition). The settings on record: time post-induction: 4.5 h; library: site-saturation at positions 5, 18, 19, 20.
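Note: peptides expressed intracellularly from a pBAD plasmid library in pooled LB shake-flask culture, induced with 0.3% L-arabinose, DNA abundance read by NGS, three biological replicates, DESeq2 with apeglm shrinkage.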

Turning to RRIRPRPPRLPRPRPRPLCVPRP, the “shrunken log2 fold change” value is -0.214.

For RRIRDRPPRLPRPRPRPAAKPRP, the “shrunken log2 fold change” value turned out to be 0.359. As to RRIRQRPPRLPRPRPRPQPWPRP, the “shrunken log2 fold change” value amounted to 0.141.

As to RRIRGRPPRLPRPRPRPNFHPRP, the “shrunken log2 fold change” value is 0.611. Next, RRIRARPPRLPRPRPRPWCYPRP: -0.306. On to RRIRRRPPRLPRPRPRPTGSPRP, for which the “shrunken log2 fold change” value was determined as 0.302. Turning to RRIRYRPPRLPRPRPRPHAQPRP, the “shrunken log2 fold change” value is -0.0405. Consider RRIRHRPPRLPRPRPRPKRIPRP, for which the “shrunken log2 fold change” value is -0.0337. Turning to RRIRCRPPRLPRPRPRPWQRPRP, the “shrunken log2 fold change” value was 0.109. For RRIRMRPPRLPRPRPRPYVNPRP, the “shrunken log2 fold change” value is -0.284. RRIRKRPPRLPRPRPRPKRVPRP: the “shrunken log2 fold change” value turned out to be 0.717. For RRIRRRPPRLPRPRPRPEGNPRP, the “shrunken log2 fold change” value was -0.0565.

Consider RRIRLRPPRLPRPRPRPCKGPRP, for which the “shrunken log2 fold change” value was -0.0757. RRIRIRPPRLPRPRPRPVFEPRP: the “shrunken log2 fold change” value came out at 0.0673.

Regarding RRIRSRPPRLPRPRPRPYTHPRP, the “shrunken log2 fold change” value is -1.3. As for RRIRYRPPRLPRPRPRPALNPRP, the “shrunken log2 fold change” value is -0.541. Consider RRIRYRPPRLPRPRPRPSPLPRP, for which the “shrunken log2 fold change” value is -0.55. Take RRIRFRPPRLPRPRPRPMGTPRP: the “shrunken log2 fold change” value is -0.0834. As to RRIRARPPRLPRPRPRPHAMPRP, the “shrunken log2 fold change” value came out at 0.177. Regarding RRIRDRPPRLPRPRPRPWPAPRP, the “shrunken log2 fold change” value was 0.308.

As for RRIRGRPPRLPRPRPRPSCLPRP, the “shrunken log2 fold change” value is 0.571. In the case of RRIRNRPPRLPRPRPRPIVVPRP, the “shrunken log2 fold change” value came to 0.0207. Next, RRIRRRPPRLPRPRPRPPLCPRP: 0.971; RRIRCRPPRLPRPRPRPGTFPRP: -0.0668. Take RRIRHRPPRLPRPRPRPICQPRP: the “shrunken log2 fold change” value is -0.113. On to RRIRARPPRLPRPRPRPVFRPRP, for which the “shrunken log2 fold change” value was determined as 0.143.

On to RRIRKRPPRLPRPRPRPACDPRP, for which the “shrunken log2 fold change” value came to 0.861. Next, RRIRFRPPRLPRPRPRPRMSPRP: 0.000208. For RRIRVRPPRLPRPRPRPFLSPRP, the “shrunken log2 fold change” value is -0.567. On to RRIRFRPPRLPRPRPRPASCPRP, for which the “shrunken log2 fold change” value came to 0.0375.

Regarding RRIRNRPPRLPRPRPRPVARPRP, the “shrunken log2 fold change” value was determined as 0.23. Take RRIRQRPPRLPRPRPRPQWMPRP: the “shrunken log2 fold change” value was -0.494. With RRIRERPPRLPRPRPRPSWAPRP, the “shrunken log2 fold change” value is -0.24. On to RRIRERPPRLPRPRPRPCQFPRP, for which the “shrunken log2 fold change” value was -0.131. Take RRIRDRPPRLPRPRPRPDEVPRP: the “shrunken log2 fold change” value was -0.01. In the case of RRIRMRPPRLPRPRPRPAYSPRP, the “shrunken log2 fold change” value was -0.166. As to RRIRYRPPRLPRPRPRPKSKPRP, the “shrunken log2 fold change” value was -0.428. Regarding RRIRLRPPRLPRPRPRPFVKPRP, the “shrunken log2 fold change” value was -0.225. As to RRIRNRPPRLPRPRPRPKIFPRP, the “shrunken log2 fold change” value is 0.19. For RRIRPRPPRLPRPRPRPWKKPRP, the “shrunken log2 fold change” value is -0.0306. With RRIRVRPPRLPRPRPRPLLNPRP, the “shrunken log2 fold change” value stood at 0.159. RRIRNRPPRLPRPRPRPASAPRP: the “shrunken log2 fold change” value was determined as 0.0499. As to RRIRGRPPRLPRPRPRPCHWPRP, the “shrunken log2 fold change” value is -0.175.

For the sequence RRIRARPPRLPRPRPRPLPRPRP, the “shrunken log2 fold change” value is 0.768.

RRIRSRPPRLPRPRPRPQCYPRP: the “shrunken log2 fold change” value is -0.569.

For the sequence RRIRRRPPRLPRPRPRPWFPPRP, the “shrunken log2 fold change” value was -0.44.

Consider RRIRNRPPRLPRPRPRPALNPRP, for which the “shrunken log2 fold change” value amounted to 0.0657. Next, RRIRWRPPRLPRPRPRPIHQPRP: 0.0226. RRIRQRPPRLPRPRPRPMRHPRP: the “shrunken log2 fold change” value is 2.84. For RRIRIRPPRLPRPRPRPFNNPRP, the “shrunken log2 fold change” value is -0.318. Regarding RRIRYRPPRLPRPRPRPNHSPRP, the “shrunken log2 fold change” value was -0.498. RRIRKRPPRLPRPRPRPMFGPRP: the “shrunken log2 fold change” value was found to be 0.112.

For RRIRNRPPRLPRPRPRPLEIPRP, the “shrunken log2 fold change” value is 0.000705. As to RRIRCRPPRLPRPRPRPENTPRP, the “shrunken log2 fold change” value is -0.297.

In the case of RRIRIRPPRLPRPRPRPHNCPRP, the “shrunken log2 fold change” value was -0.0359. Turning to RRIRYRPPRLPRPRPRPTTIPRP, the “shrunken log2 fold change” value was -0.769. Consider RRIRGRPPRLPRPRPRPHGKPRP, for which the “shrunken log2 fold change” value came out at 0.513. Take RRIRHRPPRLPRPRPRPCPHPRP: the “shrunken log2 fold change” value was -0.0102. Next, RRIRWRPPRLPRPRPRPWWTPRP: -0.0199; RRIRIRPPRLPRPRPRPVVTPRP: -0.408; RRIRVRPPRLPRPRPRPHCMPRP: -0.414. Regarding RRIRWRPPRLPRPRPRPASWPRP, the “shrunken log2 fold change” value worked out at 0.576. On to RRIRERPPRLPRPRPRPSYPPRP, for which the “shrunken log2 fold change” value is -0.877. With RRIRGRPPRLPRPRPRPAQCPRP, the “shrunken log2 fold change” value was 0.471.

For the sequence RRIRGRPPRLPRPRPRPAREPRP, the “shrunken log2 fold change” value was 0.38. For the sequence RRIRHRPPRLPRPRPRPPPMPRP, the “shrunken log2 fold change” value came to 0.557. RRIRARPPRLPRPRPRPPMCPRP: the “shrunken log2 fold change” value turned out to be 0.00915.

Turning to RRIRVRPPRLPRPRPRPMDDPRP, the “shrunken log2 fold change” value was -0.312. In the case of RRIRARPPRLPRPRPRPTPLPRP, the “shrunken log2 fold change” value was found to be 0.601. In the case of RRIRLRPPRLPRPRPRPACKPRP, the “shrunken log2 fold change” value worked out at 0.00454. In the case of RRIRGRPPRLPRPRPRPQLTPRP, the “shrunken log2 fold change” value was determined as 0.644. As to RRIRFRPPRLPRPRPRPNIKPRP, the “shrunken log2 fold change” value is -0.504. Next, RRIRFRPPRLPRPRPRPYIVPRP: -0.97; RRIRYRPPRLPRPRPRPYKEPRP: 0.043. As to RRIRMRPPRLPRPRPRPKNDPRP, the “shrunken log2 fold change” value turned out to be 1.05. On to RRIRGRPPRLPRPRPRPCHRPRP, for which the “shrunken log2 fold change” value turned out to be 0.207. For the sequence RRIRVRPPRLPRPRPRPGEHPRP, the “shrunken log2 fold change” value was -0.035.

In the case of RRIRDRPPRLPRPRPRPYLDPRP, the “shrunken log2 fold change” value is -0.0026.

Turning to RRIRRRPPRLPRPRPRPTERPRP, the “shrunken log2 fold change” value turned out to be 0.409. Turning to RRIRDRPPRLPRPRPRPLHSPRP, the “shrunken log2 fold change” value turned out to be 0.0372. On to RRIRDRPPRLPRPRPRPAHNPRP, for which the “shrunken log2 fold change” value was -0.206. Next, RRIRERPPRLPRPRPRPMLKPRP: -0.292. Next, RRIRDRPPRLPRPRPRPDDSPRP: -0.0417; RRIRYRPPRLPRPRPRPWNWPRP: -0.252; RRIRTRPPRLPRPRPRPKIMPRP: -0.519. With RRIRVRPPRLPRPRPRPQPPPRP, the “shrunken log2 fold change” value came to 0.298.

Regarding RRIRYRPPRLPRPRPRPRDSPRP, the “shrunken log2 fold change” value is -0.269. Take RRIRFRPPRLPRPRPRPWHIPRP: the “shrunken log2 fold change” value was -0.213. For RRIRKRPPRLPRPRPRPDSNPRP, the “shrunken log2 fold change” value stood at 0.0348. Regarding RRIRQRPPRLPRPRPRPPTIPRP, the “shrunken log2 fold change” value was 2.14. As to RRIRTRPPRLPRPRPRPNSLPRP, the “shrunken log2 fold change” value was determined as 0.0607.

Consider RRIRCRPPRLPRPRPRPVEHPRP, for which the “shrunken log2 fold change” value was 0.0272. Next, RRIRNRPPRLPRPRPRPKCTPRP: 0.119. Take RRIRVRPPRLPRPRPRPNTRPRP: the “shrunken log2 fold change” value was determined as 0.02. RRIRNRPPRLPRPRPRPQGEPRP: the “shrunken log2 fold change” value was -0.422. Turning to RRIRCRPPRLPRPRPRPMHRPRP, the “shrunken log2 fold change” value worked out at 0.0421. Next, RRIRARPPRLPRPRPRPIWMPRP: -0.00518; RRIRQRPPRLPRPRPRPSAHPRP: -0.075.

Regarding RRIRLRPPRLPRPRPRPELPPRP, the “shrunken log2 fold change” value is -0.0217. Next, RRIRHRPPRLPRPRPRPEQLPRP: -0.0602; RRIRSRPPRLPRPRPRPYLQPRP: -0.176. Consider RRIRCRPPRLPRPRPRPEYEPRP, for which the “shrunken log2 fold change” value was -0.108.

As for RRIRWRPPRLPRPRPRPTGYPRP, the “shrunken log2 fold change” value was -0.145. On to RRIRQRPPRLPRPRPRPVPDPRP, for which the “shrunken log2 fold change” value was 0.106. RRIRTRPPRLPRPRPRPGMMPRP: the “shrunken log2 fold change” value was -0.211.

On to RRIRARPPRLPRPRPRPAESPRP, for which the “shrunken log2 fold change” value came to 0.531. Next, RRIRNRPPRLPRPRPRPFHWPRP: -0.186. In the case of RRIRDRPPRLPRPRPRPSKLPRP, the “shrunken log2 fold change” value was -0.317. For the sequence RRIRRRPPRLPRPRPRPWWAPRP, the “shrunken log2 fold change” value stood at 0.0813. For RRIRFRPPRLPRPRPRPSCAPRP, the “shrunken log2 fold change” value was -0.22. As for RRIRCRPPRLPRPRPRPVSCPRP, the “shrunken log2 fold change” value is 0.193.

Regarding RRIRRRPPRLPRPRPRPYYGPRP, the “shrunken log2 fold change” value was -0.132.

Consider RRIRQRPPRLPRPRPRPDISPRP, for which the “shrunken log2 fold change” value was 0.0318. With RRIRCRPPRLPRPRPRPITGPRP, the “shrunken log2 fold change” value was -0.213. Consider RRIRTRPPRLPRPRPRPHAVPRP, for which the “shrunken log2 fold change” value came to 0.0205. Next, RRIRVRPPRLPRPRPRPSAFPRP: 0.0827. As for RRIRDRPPRLPRPRPRPRNCPRP, the “shrunken log2 fold change” value was -0.152. Turning to RRIRLRPPRLPRPRPRPQHNPRP, the “shrunken log2 fold change” value was -0.507. For RRIRCRPPRLPRPRPRPSANPRP, the “shrunken log2 fold change” value was 0.0237. Regarding RRIRARPPRLPRPRPRPTIYPRP, the “shrunken log2 fold change” value was found to be 0.0113. For RRIRIRPPRLPRPRPRPPDQPRP, the “shrunken log2 fold change” value was -0.0864. As for RRIRFRPPRLPRPRPRPNAGPRP, the “shrunken log2 fold change” value was -0.0253.

With RRIRDRPPRLPRPRPRPKTGPRP, the “shrunken log2 fold change” value is -0.111.

Consider RRIRNRPPRLPRPRPRPELTPRP, for which the “shrunken log2 fold change” value is 0.162.

On to RRIRVRPPRLPRPRPRPVSIPRP, for which the “shrunken log2 fold change” value was 0.126.
